Earlier results on one substance are cited in PMC3621282.

This data set concerns the target VEGFR-2 (Homo sapiens) (UniProt P35968).
UniProt P35968, sequence (P35968 20-1356): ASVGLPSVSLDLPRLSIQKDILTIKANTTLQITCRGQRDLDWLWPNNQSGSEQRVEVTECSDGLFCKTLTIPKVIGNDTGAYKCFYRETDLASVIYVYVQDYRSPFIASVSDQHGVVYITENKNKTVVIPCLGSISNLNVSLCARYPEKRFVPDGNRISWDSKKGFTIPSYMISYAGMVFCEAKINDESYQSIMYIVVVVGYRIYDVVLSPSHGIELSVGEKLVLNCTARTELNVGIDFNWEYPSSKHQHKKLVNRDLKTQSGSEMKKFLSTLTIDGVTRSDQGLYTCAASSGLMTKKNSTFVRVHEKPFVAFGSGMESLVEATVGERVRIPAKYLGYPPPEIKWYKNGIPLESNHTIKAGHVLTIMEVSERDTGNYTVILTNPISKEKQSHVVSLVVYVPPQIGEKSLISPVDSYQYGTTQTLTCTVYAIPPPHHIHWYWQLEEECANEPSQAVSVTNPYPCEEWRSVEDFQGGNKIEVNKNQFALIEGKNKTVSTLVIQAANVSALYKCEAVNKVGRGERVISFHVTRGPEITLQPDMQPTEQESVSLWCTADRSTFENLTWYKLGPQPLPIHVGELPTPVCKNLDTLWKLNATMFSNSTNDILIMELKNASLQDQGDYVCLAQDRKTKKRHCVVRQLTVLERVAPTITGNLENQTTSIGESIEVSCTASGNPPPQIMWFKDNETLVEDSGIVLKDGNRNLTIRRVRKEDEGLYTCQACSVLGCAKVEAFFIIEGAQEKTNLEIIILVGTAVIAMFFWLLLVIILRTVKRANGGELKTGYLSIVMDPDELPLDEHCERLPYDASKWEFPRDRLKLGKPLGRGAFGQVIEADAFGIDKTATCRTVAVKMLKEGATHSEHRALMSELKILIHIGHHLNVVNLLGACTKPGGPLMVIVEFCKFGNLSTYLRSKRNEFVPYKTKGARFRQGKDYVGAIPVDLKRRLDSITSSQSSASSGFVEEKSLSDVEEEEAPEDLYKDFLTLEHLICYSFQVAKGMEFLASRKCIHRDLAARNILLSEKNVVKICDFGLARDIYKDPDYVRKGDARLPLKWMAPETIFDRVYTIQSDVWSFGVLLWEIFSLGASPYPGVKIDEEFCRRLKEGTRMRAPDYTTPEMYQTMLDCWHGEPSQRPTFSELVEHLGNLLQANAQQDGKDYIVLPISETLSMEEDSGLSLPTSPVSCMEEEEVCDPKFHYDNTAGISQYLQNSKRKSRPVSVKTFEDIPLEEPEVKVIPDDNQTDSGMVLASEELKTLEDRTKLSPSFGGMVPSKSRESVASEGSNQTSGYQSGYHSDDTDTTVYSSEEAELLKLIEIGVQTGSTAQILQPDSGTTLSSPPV

On to VEGF (from UniProt P15692), for which the Kd was 0.1 nM.
